US20020160975A1, “Conserved XIAP-interaction motif in caspase-9 and Smac/DIABLO for mediating apoptosis” (Thomas Jefferson University, priority 2001, published 2002)
Numbering of substitutions follows the chain as printed. Names and notes keep the numbering of the source.

Legend:
[1] = molecular target: T1, XIAP (Homo sapiens, UniProt P98170); test: Cytochrome c-dependent caspase-3 activation in 293T S100 extracts containing XIAP (DEVD-AMC); type: biochemical; details: 25, 100 and 500 μM peptide, XIAP 10 nM, cytochrome c and dATP
T1 construct: made in house; host or cells: in vitro translation (cell-free)
Experimental: The activity of caspase-3 in the S100 extracts was measured using the peptide substrate DEVD-AMC.

[2] = molecular target: T1, XIAP; test: Far Western blot analysis with 35S-labeled XIAP; type: binding; details: for binding of XIAP by Far Western: proteins on nitrocellulose membrane, denatured and renatured; for ability to interact with BIR3 (Far western, FIG. 12B): recombinant caspase-9 mutants
[3] = molecular target: T2, X-linked inhibitor of apoptosis protein (XIAP), full length (UniProt P98170 1-497); test: Far western with 35S-labeled XIAP
T2 construct: Used as in vitro translated 35S-labeled full length XIAP (pull-down, Far western) or as purified XIAP (holoenzyme experiments); also called full length XIAP; 35S-labeled XIAP

[4] = molecular target: T3, isolated BIR3 domain of XIAP (UniProt P98170 238-358, limits assumed); test: method not stated
T3 construct: domain: BIR3; In vitro translated 35S-labeled BIR3 in pull-downs; purified XIAP-BIR3 in enzyme assays; also called XIAP-BIR3; WT BIR3

[5] = molecular target: T4, E314S mutant BIR3 domain of XIAP (UniProt P98170 238-358, limits assumed); test: GST pull-down of 35S-labeled E314S BIR3
T4 construct: domain: BIR3; 35S-labeled, in vitro translated

[6] = molecular target: T5, isolated BIR3 domain of XIAP (Homo sapiens, UniProt P98170); test: In vitro interaction assay of GST fusion proteins with 35S-labeled BIR3; type: binding; details: for interaction with isolated BIR3 domain of XIAP: C-terminal GST fusion proteins immobilized onto glutathione-affinity resin
T5 construct: full length XIAP or the isolated BIR3 domain of XIAP; made in house; host or cells: in vitro translation (cell-free)
Text: (§1) The C-terminal GST fusion proteins were expressed in bacteria and then immobilized onto glutathione-affinity resin. […] The caspase-9 deletion mutants used in these studies are represented by bar diagrams above the panel in FIG. 10.

[7] = molecular target: T6, E314S mutant BIR3 domain of XIAP (Homo sapiens, UniProt P98170, E314S); test: Interaction of GST fusion proteins with 35S-labeled E314S mutant BIR3; type: binding; details: compared with WT BIR3
T6 construct: made in house
Text: as §1

[8] = molecular target: T7, full length XIAP (Homo sapiens, UniProt P98170); test: In vitro interaction assay of GST fusion proteins with 35S-labeled XIAP; type: binding; details: for interaction with full length XIAP: C-terminal GST fusion proteins immobilized onto glutathione-affinity resin
T7 construct: full length XIAP or the isolated BIR3 domain of XIAP; made in house; host or cells: in vitro translation (cell-free)
Text: as §1

[9] = molecular target: T8, isolated BIR3 domain of XIAP, P98170
T8 chain: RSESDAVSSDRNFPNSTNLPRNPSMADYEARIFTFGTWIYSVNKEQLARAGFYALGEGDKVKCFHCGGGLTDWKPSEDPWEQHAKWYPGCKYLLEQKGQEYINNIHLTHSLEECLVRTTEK

[10] = molecular target: T2, X-linked inhibitor of apoptosis protein …; test: gel filtration on Superose 6 and immunoblot of fractions
[11] = less than p12 and linker peptide

ATPFQ (listed as Homo sapiens) [p12-N5]
promoting caspase-3 activation in XIAP containing extracts [1]: as effective in promoting caspase-3 activation as the Smac-N5 or N7 peptides

B1: single mutant (D315A) caspase-9 (enzyme)
chain: MDEADRRLLRRCRLRLVEELQVDQLWDALLSRELFRPHMIEDIQRAGSGSRRDQARQLIIDLETRGSQALPLFISCLEDTGQDMLASFLRTNRQAAKLSKPTLENLTPVVLRPEIRKPEVLRPETPRPVDIGSGGFGDVGALESLRGNADLAYILSMEPCGHCLIINNVNFCRESGLRTRTGSNIDCEKLRRRFSSLHFMVEVKGDLTAKKMVLALLELAQQDHGALDCCVVVILSHGCQASHLQFPGAVYGTDGCPVSVEKIVNIFNGTSCPSLGGKPKLFFIQACGGEQKDHGFEVASTSPEDESPGSNPEPAATPFQEGLRTFDQLDAISSLPTPSDIFVSYSTFPGFVSWRDPKSGSWYVETLDDIFEQWAHSEDLQSLLLRVANAVSVKGIYKQMPGCFNFLRKKLFFKTS
notes: also called caspase-9 D315A
binding of XIAP by Far Western [2]: not able to bind
binding result [3]: no binding

B2: GG: caspase-9 with first two p12 residues Ala-Thr mutated to Gly-Gly (protein, UniProt P55211 1-416, looked up, variant A316G T317G)
chain: B1 chain with A315D, A316G, T317G
ability to interact with BIR3 (Far western, FIG. 12B) [2]: lost significantly the ability to interact

B3: SG: caspase-9 with first two p12 residues Ala-Thr mutated to Ser-Gly (protein, UniProt P55211 1-416, looked up, variant A316S T317G)
chain: B1 chain with A315D, A316S, T317G
ability to interact with BIR3 (Far western, FIG. 12B) [2]: lost significantly the ability to interact

B4: double mutant (D315/D330A) caspase-9 (enzyme)
chain: B1 chain with D330A
notes: also called caspase-9 D315/330A
binding of XIAP by Far Western [2]: not able to bind
binding result [3]: no binding

B5: SGVD176-179AVPF: caspase-3 with first four residues of p12 substituted with AVPF (protein)
chain 1: SGISLDNSYKMDYPEMGLCIIINNKNFHKSTGMTSRSGTDVDAANLRETFRNLKYEVRNKNDLTREEIVELMRDVSKEDHSKRSSFVCVLLSHGEEGIIFGTNGPVDLKKITNFFRGDRCRSLTGKPKLFIIQACRGTELDCGIETD
chain 2: AVPFDDMACHKIPVEADFLYAYSTAPGYYSWRNSKDGSWFIQSLCAMLKQYADKLEFMHILTRVNRKVATEFESFSFDATFHAKKQIPCIVSMLTKELYFYH
binding of XIAP by Far Western [2]: enhanced binding

AVPIAQK [Smac-N7 peptide (AVPIAQK)]
Kd [4]: ~810 nM

B6: Caspase-9-p12 C-terminal GST fusion protein (residues 316-416 of SEQ ID NO:1) (other, not shown: a dimerising Fc or GST)
chain: ATPFQEGLRTFDQLDAISSLPTPSDIFVSYSTFPGFVSWRDPKSGSWYVETLDDIFEQWAHSEDLQSLLLRVANAVSVKGIYKQMPGCFNFLRKKLFFKTS
notes: also called p12-GST; GST-p12
binding result [5]: no binding
binding result [3]: binds

B7: p12: C-terminal GST fusion protein of Caspase-9-p12 (residues 316-416 of SEQ ID NO:1) (protein)
chain: B6 chain
modifications: left off: a dimerising Fc or GST
interaction with isolated BIR3 domain of XIAP [6]: able to interact
binding to E314S mutant BIR3 [7]: abrogated binding
interaction with full length XIAP [8]: able to interact
binding of XIAP by Far Western [2]: able to bind

B8: caspase-9 linker deletion mutant (residues 316 to 330 of SEQ ID NO:1 deleted) (protein)
chain 1: MDEADRRLLRRCRLRLVEELQVDQLWDALLSRELFRPHMIEDIQRAGSGSRRDQARQLIIDLETRGSQALPLFISCLEDTGQDMLASFLRTNRQAAKLSKPTLENLTPVVLRPEIRKPEVLRPETPRPVDIGSGGFGDVGALESLRGNADLAYILSMEPCGHCLIINNVNFCRESGLRTRTGSNIDCEKLRRRFSSLHFMVEVKGDLTAKKMVLALLELAQQDHGALDCCVVVILSHGCQASHLQFPGAVYGTDGCPVSVEKIVNIFNGTSCPSLGGKPKLFFIQACGGEQKDHGFEVASTSPEDESPGSNPEPD
chain 2: AISSLPTPSDIFVSYSTFPGFVSWRDPKSGSWYVETLDDIFEQWAHSEDLQSLLLRVANAVSVKGIYKQMPGCFNFLRKKLFFKTS
DEVD-AMC cleaving activity in S100 extracts with or without XIAP-BIR3 (20 nM) [9]: the deletion of the linker region did not inhibit enzymatic activity, even in the presence of XIAP-BIR3

B9: fully processed wild-type (WT) caspase-9 (enzyme)
chain 1: B8 chain 1
chain 2: B6 chain
notes: Procaspase-9 overexpressed in E. coli, completely processed into p35 and p12 (greater than 90% at Asp315, about 10% at Asp330 giving p10, minor at Glu306); also called wild type caspase-9; processed caspase-9; not shown: C-terminal 6-Histidine tag from pET-21c or pET-28a
binding result [10]: binds

B10: p10-GST: C-terminal GST fusion protein of caspase-9 p10 (residues 331-416 of SEQ ID NO:1) (protein)
chain: B8 chain 2
modifications: left off: a dimerising Fc or GST
interaction with isolated BIR3 domain of XIAP [6]: only weakly
interaction with BIR3 domain, fold less [6, 11]: 50 to 100 fold
interaction with full length XIAP [8]: only weakly
interaction with full length XIAP, fold less [8, 11]: 50 to 100 fold
binding of XIAP by Far Western [2]: not able to bind

B11: Smac-GST: mature Smac/DIABLO GST-fusion protein (protein)
chain: AVPIAQKSEPHSLSSEALMRRAVSLVTDSTSTFLSQTTYALIEAITEYTKAVYTLTSLYRQYTSLLGKMNSEEEDEVWQVIIGARAEMTSKHQEYLKLETTWMTAVGLSEMAAEAAYQTGADQASITARNHIQLVKLQVEEVHQLSRKAETKLAEAQIEELRQKTQEEGEERAESEQEAYLRED
modifications: left off: a dimerising Fc or GST
notes: mature Smac/DIABLO GST-fusion protein
binding to E314S mutant BIR3 [7]: abrogated binding
binding of XIAP by Far Western [2]: able to bind

ATPFQEGLRTFDQLD [chemically synthesized caspase-9 linker peptide (ATPFQEGLRTFDQLD)]
Kd [4]: 550 nM
